Columns and labels:
[1] = target: FcRn of the neonatal mouse intestine (mouse) (UniProt Q61559); assay: cell-based or functional assay
[2] = target: recombinant soluble mouse FcRn (mouse) (UniProt Q61559); assay: inhibition of 125I-sFcRn binding to murine IgG1-Sepharose; molar ratio of inhibitor/FcRn 1/500
[3] = target: recombinant soluble mouse FcRn (mouse) (UniProt Q61559); assay: inhibition of 125I-sFcRn binding to murine IgG1-Sepharose; molar ratio of inhibitor/FcRn 1/1000
[4] = target: recombinant soluble mouse FcRn (mouse) (UniProt Q61559); assay: SPR (BIAcore 2000), FcRn immobilised on CM5 chip, purified Fc-hinge fragment in flow, pH 6.0

Substance	Inhibition of transmission (%) [1] [%]	% inhibition [2] [%]	% inhibition [3] [%]	Kd [4] [nM]	koff [4] [s⁻¹]	kon [4] [M⁻¹ s⁻¹]
bovine serum albumin (from UniProt P02769 25-607)	8.9					
murine IgG1 (complete glycosylated IgG1 molecule) (antibody)	51.4	24.7	45.6			
HN-433 mutant Fc-hinge fragment	44.4					
wild type (WT) Fc-hinge fragment derived from murine IgG1	55.3	18.4	34.1	7.44	0.00461	620000
I-253 mutant Fc-hinge fragment	20.2	2.3	6.5			

The next lines start with the values.

Inhibition of transmission (%) [1] [%]	% inhibition [2] [%]	% inhibition [3] [%]	Kd [4] [nM]	koff [4] [s⁻¹]	kon [4] [M⁻¹ s⁻¹]	Substance
62.5						Fc fragment produced by papain digestion of murine IgG1 (from UniProt P01868 98-324)
5.4	0.2	4				HQ-310/HN-433 mutant Fc-hinge fragment
8.9						HQ-310 mutant Fc-hinge fragment
21.5						Fc-hybrid: heterodimer of WT Fc-hinge and HQ-310/HN-433 mutant

— patent EP0904107B1
